The numbers were not newly measured in publication PMC7337057, which cites them from elsewhere.

The target in one data set is Glu118 (UniProt position 118, WFVGREQERRG). Kind of data set: NMR (solid-state). Particulars: not stated for this study (around 0 °C is stated for related SSNMR work from the same laboratory); 0.2 μM K+; K+ titrated at constant pH and ionic strength (value not stated); low ambient K+ (0.2 μM): K+-apo, collapsed selectivity filter, pH gate favoured open.
The target of another data set is Glu120 (UniProt position 120, VGREQERRGHF). Kind of data set: NMR (solid-state). Particulars: not stated for this study (around 0 °C is stated for related SSNMR work from the same laboratory); 0.2 μM K+; K+ titrated at constant pH and ionic strength (value not stated); low ambient K+ (0.2 μM): K+-apo, collapsed selectivity filter, pH gate favoured open.

On to “KcsA potassium channel (pH-gated K+ channel) (Streptomyces lividans)”, for which the pKa result with Glu118 and with Glu120 was “above 7.5” in each case.
